In data set [1] the target is T1, HPV16 E2 (Human papillomavirus type 16, UniProt P03120 1-365). Kind of data set: fluorescence polarization; 5 mM Mg2+; separate experiment alongside E1; FP: 20 mM Tris-HCl pH 7.0, 10 mM NaCl, 0.1 mg/ml BSA, 5 mM MgCl2, 1 mM DTT, room temperature, 60 min; 50 nM probe, 0-200 nM protein. To be noted: protein: recombinant; tags: His (pET28a, Ni-NTA); HA (blots); chain copies: 2; label: 5' Cy3; single strand.

The target of data set [2] is T1, HPV16 E2. Kind of data set: fluorescence polarization; 5 mM Mg2+; FP: 20 mM Tris-HCl pH 7.0, 10 mM NaCl, 0.1 mg/ml BSA, 5 mM MgCl2, 1 mM DTT, room temperature, 60 min; 50 nM probe, 0-200 nM protein. To be noted: protein: recombinant; tags: His (pET28a, Ni-NTA); HA (blots); chain copies: 2; label: 5' Cy3; single strand. For orientation: In fluorescence polarisation assays a small probe gives low polarisation when free and higher when bound to something large.

In data set [3] the target is T2, HPV16 E1 (Human papillomavirus type 16, UniProt P03114 1-649).
T2 sequence: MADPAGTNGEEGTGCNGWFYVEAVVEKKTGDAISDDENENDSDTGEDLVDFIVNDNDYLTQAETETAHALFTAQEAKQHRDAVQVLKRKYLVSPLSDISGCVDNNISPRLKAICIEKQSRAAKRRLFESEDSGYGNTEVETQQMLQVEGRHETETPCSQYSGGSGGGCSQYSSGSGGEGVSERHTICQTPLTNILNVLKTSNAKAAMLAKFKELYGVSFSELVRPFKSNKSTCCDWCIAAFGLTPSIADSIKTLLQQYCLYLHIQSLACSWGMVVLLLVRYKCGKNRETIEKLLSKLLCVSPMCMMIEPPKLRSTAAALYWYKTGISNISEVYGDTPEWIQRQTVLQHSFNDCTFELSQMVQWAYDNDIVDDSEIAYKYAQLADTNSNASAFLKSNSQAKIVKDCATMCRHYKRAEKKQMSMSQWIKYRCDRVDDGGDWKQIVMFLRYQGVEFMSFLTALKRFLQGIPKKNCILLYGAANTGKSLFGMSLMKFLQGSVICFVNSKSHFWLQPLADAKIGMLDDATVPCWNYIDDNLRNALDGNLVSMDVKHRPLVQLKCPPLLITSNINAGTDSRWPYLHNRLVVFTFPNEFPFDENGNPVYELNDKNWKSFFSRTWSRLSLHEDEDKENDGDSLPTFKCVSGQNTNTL
Described as above. The following applies: protein: recombinant; tags: His (pET28a, Ni-NTA); Myc (co-IP); chain copies: 6; label: 5' Cy3; single strand.

T1 sequence (P03120 whole entry): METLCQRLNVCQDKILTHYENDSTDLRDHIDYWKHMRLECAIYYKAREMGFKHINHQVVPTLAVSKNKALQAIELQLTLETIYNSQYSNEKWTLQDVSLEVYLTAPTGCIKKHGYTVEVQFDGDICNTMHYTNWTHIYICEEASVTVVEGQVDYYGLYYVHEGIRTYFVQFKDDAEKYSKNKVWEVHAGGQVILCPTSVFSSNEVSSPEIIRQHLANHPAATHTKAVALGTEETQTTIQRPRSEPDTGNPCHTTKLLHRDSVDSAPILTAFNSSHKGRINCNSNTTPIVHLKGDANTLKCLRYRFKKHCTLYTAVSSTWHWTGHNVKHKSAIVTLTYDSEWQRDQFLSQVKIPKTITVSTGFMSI

Take GCGTCTTTACGGGTGCTTAAAAACAAAAACAAAAACAAAA (ssDNA) [Cy3-labeled 40-nt ssDNA (FP probe)]: the Kd (usually the constant that tells how readily two partners part at equilibrium) in data set [1] is 28 ± 10 nM; in data set [2], 24 ± 8 nM; in data set [3] it was 172 ± 88 nM.
